The results in this text go back to US20100254992A1 (published 2010).

The target of one assay is human Eotaxin 1 (human, UniProt P51671 24-97). The experiment in a line: BioVeris solution equilibrium titration. On the procedure: Solution Equilibrium Titration (SET) Method for KD Determination and Cross-Reactivity Studies Using BioVeris. Affinity determination in solution was basically performed as described in the literature (Friguet et al., 1985). In order to improve the sensitivity and accuracy of the SET method, it was transferred from classical ELISA to ECL based BioVeris technology (Haenel et al., 2005, accepted for publication in Analytical Biochemistry). 1 mg/ml goat-anti-human (Fab)₂ or goat-anti-mouse IgG, Fc fragment specific antibodies (Jackson Immuno Research) were labelled with BV-tag™ NHS-Ester (Bioveris Europe, Witney, Oxfordshire, UK) according to manufacturer's instructions. The experiments were carried out in polypropylene microtiter plates and PBS pH 7.4 with 0.5% BSA and 0.02% Tween 20 as assay buffer. Unlabeled antigen was diluted in 4ⁿ series: For human and cyno MCP-1 a concentration range of 10 pM to 40 nM and for cross-reactivity controls (Eotaxin and MCP-2) a concentration range of 40 pM to 160 nM was chosen. Wells without antigen were used to determine Smax values. After addition of 100 pM Fab or IgG (final concentration in 75 μL final volume), the mixture was incubated for 2 hours at RT. […]
Sequence of human Eotaxin 1 (P51671 24-97 limits assumed): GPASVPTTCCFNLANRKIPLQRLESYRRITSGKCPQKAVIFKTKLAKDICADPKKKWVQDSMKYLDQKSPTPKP
Specificity Testing Using BioVeris. Beside the affinity also the specificity, especially the cross-reactivity to Eotaxin and MCP-2, was analyzed in solution equilibrium titration (SET) using BioVeris. […]

In a further assay the target is T1, human MCP-4 (human, UniProt Q99616 24-98, limits assumed).
T1 construct: also called CCL13
T1 sequence (Q99616 24-98 limits assumed): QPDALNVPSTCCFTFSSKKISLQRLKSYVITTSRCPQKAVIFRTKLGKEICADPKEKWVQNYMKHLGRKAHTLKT
The experiment in a line: Biacore, IgG capture mode.

A further assay concerns the target T2, human Eotaxin 2 (human, UniProt O00175 27-104, limits assumed).
T2 sequence (looked up): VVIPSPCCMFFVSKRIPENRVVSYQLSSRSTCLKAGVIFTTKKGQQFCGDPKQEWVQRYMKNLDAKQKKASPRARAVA
The experiment in a line: Biacore, IgG capture mode. For orientation: Surface plasmon resonance follows binding to a sensor surface in real time, without labels.

For a further assay, the target named is T3, human MCP-3 (human, UniProt P80098 24-99).
T3 construct: also called CCL7
T3 sequence (P80098 24-99 limits assumed): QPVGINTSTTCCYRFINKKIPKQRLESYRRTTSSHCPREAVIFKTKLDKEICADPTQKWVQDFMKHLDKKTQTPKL
The experiment in a line: Biacore, IgG capture mode.

The target of the next assay is T4, human Eotaxin 3 (human, UniProt Q9Y258 24-94).
T4 sequence (looked up): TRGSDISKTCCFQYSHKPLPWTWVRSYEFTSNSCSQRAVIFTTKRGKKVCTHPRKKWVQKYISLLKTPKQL
The experiment in a line: Biacore, IgG capture mode.

B1: MOR03790 IgG1 (antibody, V domains shown)
VH: QVELVQSGAEVKKPGSSVKVSCKASGGTFSSYGISWVRQAPGQGLEWMGGIIPIFGTANYAQKFQGRVTITADESTSTAYMELSSLRSEDTAVYYCARYDGIYGELDFWGQGTLVTVSS
VL: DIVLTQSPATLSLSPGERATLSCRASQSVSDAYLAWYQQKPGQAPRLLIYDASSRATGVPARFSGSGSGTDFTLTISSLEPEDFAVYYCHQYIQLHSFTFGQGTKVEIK
notes: Human IgG1; also called MOR3790 IgG1; MOR3790k IgG
Take B1: the binding result is reported as “no binding (tested: 40 pM to 160 nM)” with human Eotaxin 1; “no binding (tested: 100 nM)” with human MCP-4; “no binding (tested: 100 nM)” with human Eotaxin 2; “no binding (tested: 100 nM)” in the assay with human MCP-3; “no binding (tested: 100 nM)” with human Eotaxin 3.
